The results in this text go back to publication PMC8517284.

A value given as a limit tells only on which side of the number the result lay.

The assay concerns the target FLAG-tagged CysD3 (DIO3, NM_001362, selenocysteine codon replaced with cysteine) (UniProt P55073). The experiment in a line: co-IP.

Chain of Myc-tagged β3 integrin (NM_000212.2) (P05106 27-788): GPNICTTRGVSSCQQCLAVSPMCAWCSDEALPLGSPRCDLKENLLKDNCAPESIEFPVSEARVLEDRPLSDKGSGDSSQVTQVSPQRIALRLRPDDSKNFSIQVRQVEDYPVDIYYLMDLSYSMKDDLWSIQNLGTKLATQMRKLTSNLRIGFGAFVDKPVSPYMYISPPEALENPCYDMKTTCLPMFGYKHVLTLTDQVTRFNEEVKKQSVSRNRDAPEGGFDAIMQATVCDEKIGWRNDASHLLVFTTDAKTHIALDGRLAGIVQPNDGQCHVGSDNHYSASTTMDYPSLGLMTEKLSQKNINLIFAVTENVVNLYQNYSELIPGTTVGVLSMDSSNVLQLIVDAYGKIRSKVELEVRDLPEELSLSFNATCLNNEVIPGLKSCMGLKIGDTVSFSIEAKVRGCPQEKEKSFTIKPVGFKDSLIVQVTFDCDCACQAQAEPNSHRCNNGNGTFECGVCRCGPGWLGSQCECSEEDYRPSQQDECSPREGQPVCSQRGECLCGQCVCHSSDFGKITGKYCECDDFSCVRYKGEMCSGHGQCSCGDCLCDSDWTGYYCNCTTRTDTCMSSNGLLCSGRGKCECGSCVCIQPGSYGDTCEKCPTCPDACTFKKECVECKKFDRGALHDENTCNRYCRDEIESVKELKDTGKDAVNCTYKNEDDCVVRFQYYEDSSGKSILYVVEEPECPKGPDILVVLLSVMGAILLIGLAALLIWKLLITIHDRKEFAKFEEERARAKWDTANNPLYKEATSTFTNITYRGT
Chain of FLAG-tagged CysD3 (DIO3, NM_001362, selenocysteine codon replaced with cysteine) (P55073 whole entry): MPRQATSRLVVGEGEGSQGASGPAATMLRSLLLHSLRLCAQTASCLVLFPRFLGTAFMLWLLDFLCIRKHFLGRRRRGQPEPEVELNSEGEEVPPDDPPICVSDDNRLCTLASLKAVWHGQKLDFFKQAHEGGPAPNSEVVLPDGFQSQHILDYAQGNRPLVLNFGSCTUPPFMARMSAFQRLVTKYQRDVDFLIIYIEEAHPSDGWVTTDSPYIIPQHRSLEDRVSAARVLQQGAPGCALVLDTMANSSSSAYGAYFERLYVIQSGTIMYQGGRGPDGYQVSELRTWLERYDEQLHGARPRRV

Turning to “Myc-tagged β3 integrin (NM_000212.2) (from UniProt P05106-1 27-788) (receptor)”, the fold reduction of the co-immunoprecipitation in the presence of cRGD and Tetrac is greater than 2 fold.
